Substitutions are numbered along the chain they refer to. Names may count otherwise. Values belong to the binder of their own block, whether it stands above or below them.
Legend:
[1] = molecular target: Human PD-1/PDCD1 Protein (PD-1) (human, UniProt Q15116 25-167, limits assumed); test: SPR, Biacore 8K; PD-1 captured by anti-His antibody, antibody in flow
Description: The binding affinity of each antibody to human PD-1 was measured with Biacore 8K (Cytiva). Briefly, anti-His Tag antibody was immobilized by amine coupling using Amine Coupling Kit and His Capture Kit, onto 8 channels of a sensor chip (provided with 16 flow cells; one channel consisting of two flow cells) which had carboxymethyl dextran immobilized on a gold film. The immobilization was performed by feeding an activation solution (NHS and EDC mixed in equal amounts) at a flow rate of 10 μl/min for 7 minutes, an immobilization solution at a flow rate of 5 μl/min for 7 minutes, and 1 M ethanolamine hydrochloride-NaOH (pH 8.5) at a flow rate of 10 μl/min for 7 minutes. The buffer used at the time of immobilization was 1×HBS-EP+ Buffer. After the immobilization and before applying a sample, Human PD-1/PDCD1 Protein (PD-1) adjusted to 1 μg/ml with 1×HBS-EP+ Buffer was fed to one of the two flow cells of each channel in an amount of 20 μl at a flow rate of 10 μl/min to thereby capture PD-1 on the sensor chip. As regards the other flow cell, 1×HBS-EP+ Buffer was fed in the same manner to prepare a control flow cell. Each antibody was adjusted to 16 nM with 1×HBS-EP+ Buffer, and then subjected to 2-fold 7-step serial dilution using 1×HBS-EP+ Buffer. The resultant sample solution (30 μl) was fed to each flow cell at a flow rate of 10 μl/min and the response was measured. After subtracting the response of control flow cell from the response of the flow cell which was allowed to capture the ligand, KD value was calculated by curve fitting using Biacore 8K Evaluation Software.

[2] = molecular target: human PD-1 (wild-type), expressed on cells (human, UniProt Q15116 25-288); test: cell-based or functional assay
[3] = molecular target: T1, substituted human PD-1, domain #6 replaced with the corresponding amino acid sequence of mouse PD-1 (human; mouse, UniProt Q15116 25-288); test: flow cytometry on cells expressing substituted human PD-1
T1 construct: Human limits of domain #6 (109-120) are printed; also called PD-1 if domain #6 is replaced
T1 chain: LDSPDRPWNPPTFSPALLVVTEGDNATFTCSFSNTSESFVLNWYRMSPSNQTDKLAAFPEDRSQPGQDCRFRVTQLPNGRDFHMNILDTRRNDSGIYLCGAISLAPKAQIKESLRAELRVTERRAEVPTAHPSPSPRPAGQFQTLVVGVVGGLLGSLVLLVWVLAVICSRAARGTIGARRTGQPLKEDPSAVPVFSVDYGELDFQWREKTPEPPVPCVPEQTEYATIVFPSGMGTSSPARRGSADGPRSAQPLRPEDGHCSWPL
Source text: (§1) These sub-groups of antibodies are characterized by a common nature that they bind to domain #6 and domain #7, and are distinguished from known antibodies.
(§2) The gene of human PD-1 (wild-type) or substituted human PD-1 in which regions 1 to 8 as shown in FIG. 2A were replaced with mouse sequences and a gene of fluorescent protein such as GFP were co-expressed in a cell line (such as DO11.10 T cell hybridoma or HEK293T) by means of a vector ligating the genes with IRES sequences. The expression level of PD-1 on this cell line is correlated with the expression level of fluorescent protein such as GFP. Anti-PD-1 antibody was bound to the PD-1/GFP expressing cells, and the bound antibody was detected with a secondary antibody labeled with a different fluorescent dye. Briefly, PD-1-expressing cells were seeded in V-shaped bottom 96-well plates at 1×10⁵ cells/well. To each cell pellet, 50 μl of anti-human PD-1 antibody adjusted to 5 μg/ml was added and mixed. The mixture was incubated at 4° C. for 15 minutes. After washing, BV421-labeled anti-mouse IgG antibody or BV421-labeled anti-human IgG antibody, each adjusted to 5 μg/ml, was added in 50 μl. The mixture was incubated at 4° C. for 15 minutes. After washing, cells were suspended in 200 μl of buffer, and passed through a 70 μm filter. The fluorescence intensity of the filtrate was measured with a flow cytometer. The thus obtained fluorescence intensity can be rephrased as the binding capacity of anti-human PD-1 antibody to human PD-1 (wild-type or substituted). […] Binding characteristics to R143A point mutant or substituted Mouse PD-1 (hu38-48) were also analyzed in the same manner.

[4] = molecular target: T2, substituted human PD-1, domain #1 replaced with the corresponding amino acid sequence of mouse PD-1 (human; mouse, UniProt Q15116 25-288); test: as above
T2 construct: also called PD-1 when domain #1 is replaced
T2 chain: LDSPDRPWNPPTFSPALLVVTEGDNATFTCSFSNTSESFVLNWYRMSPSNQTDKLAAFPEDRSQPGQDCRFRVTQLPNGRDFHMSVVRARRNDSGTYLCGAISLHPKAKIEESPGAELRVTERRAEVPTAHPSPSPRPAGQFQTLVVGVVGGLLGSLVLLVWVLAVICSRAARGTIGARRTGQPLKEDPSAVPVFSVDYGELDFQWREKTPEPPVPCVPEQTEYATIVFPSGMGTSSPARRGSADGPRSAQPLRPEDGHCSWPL
Source text: as §1, §2

[5] = molecular target: T3, substituted human PD-1, domain #7 replaced with the corresponding amino acid sequence of mouse PD-1 (human; mouse, UniProt Q15116 25-288); test: as above
T3 construct: Human limits of domain #7 (38-48) are printed; also called PD-1 if domain #7 is replaced
T3 chain: T2 chain with S14Y, L17W, V19T, T21S, D24A, H105A, K109Q, E111K, P114L, G115R
Source text: as §1, §2

Kd [1]: < 1.69 pM | Cell-cell contact assay [2]: 46.5 ng/mL
B1: chimeric HM268-IgG1-K322A (antibody)
heavy: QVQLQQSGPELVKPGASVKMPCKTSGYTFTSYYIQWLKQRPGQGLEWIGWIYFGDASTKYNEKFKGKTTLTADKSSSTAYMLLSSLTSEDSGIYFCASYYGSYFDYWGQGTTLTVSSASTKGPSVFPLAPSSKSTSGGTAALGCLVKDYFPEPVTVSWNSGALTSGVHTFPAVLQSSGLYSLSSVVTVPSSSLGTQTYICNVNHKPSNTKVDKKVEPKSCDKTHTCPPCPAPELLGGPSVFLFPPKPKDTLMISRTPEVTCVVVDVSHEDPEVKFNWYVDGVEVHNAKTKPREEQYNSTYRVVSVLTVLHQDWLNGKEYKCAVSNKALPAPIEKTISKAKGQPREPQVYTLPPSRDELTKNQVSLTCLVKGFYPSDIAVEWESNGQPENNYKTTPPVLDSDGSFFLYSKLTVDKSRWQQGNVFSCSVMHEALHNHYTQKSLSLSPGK
light: NIQMTQNTSSLSATLGVRVTISCRASQDISNYLNWYQQKPDGTVKLLIYSTSRLHSGIPSRFSGSGSGTDYSLTISNLEQEDIATYFCQQGSTLPFTFGGGTKLEIKRTVAAPSVFIFPPSDEQLKSGTASVVCLLNNFYPREAKVQWKVDNALQSGNSQESVTEQDSKDSTYSLSSTLTLSKADYEKHKVYACEVTHQGLSSPVTKSFNRGEC
notes: Mouse Fab region with the Fc region of human IgG1-K322A

binding result [3]: no binding (tested: 5 µg/ml) | binding result [4]: no binding (tested: 5 µg/ml) | binding result [5]: no binding (tested: 5 µg/ml)
B2: mouse HM297 (antibody, mouse IgG2a, kappa)
heavy: EVLLQQSGPELVKPGASVKIPCKASGYTFTDYNVDWVRQSHGKSLEWIGDIDPNNGGTIYNQKFKDKATLTVDKSSRTAYMELRSLTSEDTAVYYCARWRGAMDYWGQGTSVTVSSAKTTAPSVYPLAPVCGDTTGSSVTLGCLVKGYFPEPVTLTWNSGSLSSGVHTFPAVLQSDLYTLSSSVTVTSSTWPSQSITCNVAHPASSTKVDKKIEPRGPTIKPCPPCKCPAPNLLGGPSVFIFPPKIKDVLMISLSPIVTCVVVDVSEDDPDVQISWFVNNVEVHTAQTQTHREDYNSTLRVVSALPIQHQDWMSGKEFKCKVNNKDLPAPIERTISKPKGSVRAPQVYVLPPPEEEMTKKQVTLTCMVTDFMPEDIYVEWTNNGKTELNYKNTEPVLDSDGSYFMYSKLRVEKKNWVERNSYSCSVVHEGLHNHHTTKSFSRTPGK
light: DVQMTQTTSSLSASLGDRVTISCRASQDIDNYLKWYQQKPDGTVKLLIYDTSRLHSGVPSRFSGSGSGTDYSLTISNLKQEDIATYFCQQGYTLPWTFGGGTRLEIKRADAAPTVSIFPPSSEQLTSGGASVVCFLNNFYPKDINVKWKIDGSERQNGVLNSWTDQDSKDSTYSMSSTLTLTKDEYERHNSYTCEATHKTSTSPIVKSFNRNEC
notes: Mouse anti-human PD-1 monoclonal antibody (mouse IgG)

Kd [1]: 4.82 pM | Cell-cell contact assay [2]: 70.9 ng/mL
B3: HM268-J7 (antibody, human IgG1, V domains shown)
VH: QVQLVQSGPEVKKPGASVKVVCKTSGYTFTSYYIQWVRQVPGQGLEWMGWIYFGDASTKYNEKFKGKTTLTADKSTSTAYMELRSLRSDDTAVYYCASYYGSYFDYWGQGTTVTVSS
VL: DIQMTQNTSSLSASVGDRVTITCRASQDISNYLNWYQQKPDGTVKLLIYSTSRLHSGVPSRFSGSGSGTDYTLTISSLEQEDFATYYCQQGSTLPFTFGQGTKLEIK
notes: also called humanized HM268, VH ver.J / VL ver.7

Kd [1]: < 3.06 pM | Cell-cell contact assay [2]: 39.4 ng/mL
B4: humanized HM268-K8-IgG1-K322A (antibody, V domains shown)
VH: B3 VH with V37L, R38K, V40R, M48I, K67R, T68V, L70M
VL: DIQMTQSPSSLSASVGDRVTITCRASQDISNYLNWYQQKPDGTVKLLIYSTSRLHSGVPSRFSGSGSGTDYTLTISSLQPEDFATYYCQQGSTLPFTFGQGTKLEIKR

Kd [1]: 6.91 pM | Cell-cell contact assay [2]: 43.7 ng/mL
B5: HM268-K7 (antibody, human IgG1, V domains shown)
VH: B3 VH with V37L, R38K, V40R, M48I, K67R, T68V, L70M
VL: B3 VL
notes: also called humanized HM268, VH ver.K / VL ver.7

Kd [1]: 1.29 pM | Cell-cell contact assay [2]: 98.2 ng/mL
B6: HM268-L8 (antibody, human IgG1, V domains shown)
VH: B3 VH with K67R, T68V, L70M, K74T
VL: B3 VL with N7S, T8P, E79Q, Q80P
notes: also called humanized HM268, VH ver.L / VL ver.8

Kd [1]: 11.1 pM | Cell-cell contact assay [2]: 87.4 ng/mL
B7: HM268-L9 (antibody, human IgG1, V domains shown)
VH: B3 VH with K67R, T68V, L70M, K74T
VL: B3 VL with N7S, T8P, D41G, G42K, T43A, V44P, E79Q, Q80P
notes: also called humanized HM268, VH ver.L / VL ver.9

Kd [1]: < 2.84 pM | Cell-cell contact assay [2]: 63.1 ng/mL
B8: HM268-J8 (antibody, human IgG1, V domains shown)
VH: B3 VH
VL: B3 VL with N7S, T8P, E79Q, Q80P
notes: also called humanized HM268, VH ver.J / VL ver.8

Kd [1]: 25.2 pM | Cell-cell contact assay [2]: 301 ng/mL
B9: HM268-J9 (antibody, human IgG1, V domains shown)
VH: B3 VH
VL: B3 VL with N7S, T8P, D41G, G42K, T43A, V44P, E79Q, Q80P
notes: also called humanized HM268, VH ver.J / VL ver.9

Kd [1]: 151 pM | Cell-cell contact assay [2]: 150 ng/mL
B10: HM268-K9 (antibody, human IgG1, V domains shown)
VH: B3 VH with V37L, R38K, V40R, M48I, K67R, T68V, L70M
VL: B3 VL with N7S, T8P, D41G, G42K, T43A, V44P, E79Q, Q80P
notes: also called humanized HM268, VH ver.K / VL ver.9

Kd [1]: 2.16 pM | Cell-cell contact assay [2]: 103 ng/mL
B11: HM268-L7 (antibody, human IgG1, V domains shown)
VH: B3 VH with K67R, T68V, L70M, K74T
VL: B3 VL
notes: also called humanized HM268, VH ver.L / VL ver.7

Kd [1]: 61.4 pM | Cell-cell contact assay [2]: 1430 ng/mL
B12: HM268-M9 (antibody, human IgG1, V domains shown)
VH: B3 VH with T24A, K67R, T68V, L70M, K74T
VL: B3 VL with N7S, T8P, D41G, G42K, T43A, V44P, E79Q, Q80P
notes: also called humanized HM268, VH ver.M / VL ver.9

Kd [1]: 12 pM | Cell-cell contact assay [2]: 149 ng/mL
B13: HM268-M7 (antibody, human IgG1, V domains shown)
VH: B3 VH with T24A, K67R, T68V, L70M, K74T
VL: B3 VL
notes: also called humanized HM268, VH ver.M / VL ver.7

binding result [3]: no binding (tested: 5 µg/ml) | binding result [5]: no binding (tested: 5 µg/ml)
B14: HM698 (antibody, V domains shown)
VH: EVLLQQSGPELVKPGASVKIPCKASGYTFTDYNMDWVKQSHGKSLEWIGDIDPNNGGTVYNQKFKGKASLTVDKSSSTAYMELRSLTSEDTAVYYCARWRSAMDYWGQGTSVTVSS
VL: DIQMTQTTSSLSASLGDRVTISCRASQDISNYLNWYQQKPDGTVKLLIYYTSRLHSGVPSRFSGSGSGTDYSLTISNLEQEDIATYFCQQYNTLPWTFGGGTKLEIKR

binding result [3]: no binding (tested: 5 µg/ml) | binding result [5]: no binding (tested: 5 µg/ml)
B15: HM647 (antibody, V domains shown)
VH: B14 VH with P21T, G66D, A79G
VL: B14 VL with T7P, Y49S, E81V, N92S, T102S

— patent US20240317859A1 (FOUNDATION FOR BIOMEDICAL RESEARCH AND INNOVATION AT KOBE, published 2024)
